LC/MS turnover assay and stoichiometry N data for three compounds are collected here from PMC6978369, “Peptidoglycan reshaping by a noncanonical peptidase for helical cell shape in Campylobacter jejuni” (Nature Communications, 2020).

One assay concerns the target T1, Pgp3 (Campylobacter jejuni, UniProt A0AAD2UT50).
T1 construct: gene A8118_01115; residues 21-273 (Glu21 to Gln273 in Methods, Asn273 in Results) without N-terminal 20 residues, of 274 aa; expressed in E. coli Rosetta2 (DE3); Zn enzyme
As to the kind of experiment: LC/MS turnover assay. Format: biochemical. The note with it: D,D-endopeptidase; 50 mM Tris pH 7.5, 23 °C.

The target in assay [1] is Pgp3 H247A mutant, residues 21-273 (C. jejuni (strain ATCC 33560)). Description: crystal structure; H247A protein (10 mg/mL, 20 mM Tris-HCl pH 8.0, 200 mM NaCl) mixed with peptide in a 1:10 molar ratio, 277 K for 1 h; crystals grown at 296 K in 1.8 M ammonium citrate tribasic pH 7.0.

One may read the stoichiometry N as a count of units in the complex or per binding partner.

T1 sequence (A0AAD2UT50 entry or part of it): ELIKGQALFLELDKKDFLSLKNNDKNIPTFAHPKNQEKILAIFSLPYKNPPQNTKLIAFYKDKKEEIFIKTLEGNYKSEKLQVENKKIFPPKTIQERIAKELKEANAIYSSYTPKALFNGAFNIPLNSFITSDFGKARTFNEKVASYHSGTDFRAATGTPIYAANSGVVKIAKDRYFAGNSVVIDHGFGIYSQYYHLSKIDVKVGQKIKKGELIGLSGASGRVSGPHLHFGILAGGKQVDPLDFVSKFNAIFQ

Turning to `CO[C@@H]1O[C@H](CO)[C@@H](O)[C@H](O[C@H](C)C(=O)N[C@@H](C)C(=O)N[C@H](CCC(=O)N[C@@H](CCC[C@@H](NC(=O)[C@@H](C)NC(=O)[C@H](CCC[C@@H](N)C(=O)O)NC(=O)CC[C@@H](NC(=O)[C@H](C)NC(=O)[C@@H](C)O[C@H]2[C@H](O)[C@@H](CO)O[C@@H](OC)[C@@H]2NC(C)=O)C(=O)O)C(=O)O)C(=O)O)C(=O)O)[C@H]1NC(C)=O` [compound 2, crosslinked muramyl tetra-tri peptide], the LC/MS turnover assay result at Pgp3 was “Pgp3 exhibited both D,D-carboxypeptidase and D,D-endopeptidase activities based on LC/MS analysis”.
For the compound “crosslinked muramyl tetra-tri peptide 2, NAM-L-Ala1-γ-D-Glu2-mDAP3-D-Ala4-mDAP3-γ-D-Glu2-Ala1-NAM”, the stoichiometry N in assay [1] is 1.
For “pentapeptide 1, Ac-L-Ala1-γ-D-Glu2-mDAP3-D-Ala4-D-Ala5”, the stoichiometry N in assay [1] worked out at 1.
